Data on two molecules can be found in publication doi:10.1101/2023.06.02.543398 (bioRxiv, 2023).

Ends that are not written are not given here.

Broadly, the Kd is the constant that tells how readily two partners part at equilibrium. A high value points to weaker binding.

The chains are these.
B1: MAP7 MT-binding domain (MTBD), residues 59-170 (domain or fragment)
chain: PVLRVDDRQRLARERREEREKQLAAREIVWLEREERARQHYEKHLEERKKRLEEQRQKEERRRAAVEEKRRQRLEEDKERHEAVVRRTMERSQKPKQKHNRWSWGGSLHGSP
B2: NHS-fluorescein-labelled α-tubulin carboxy-terminal tail peptide (peptide)
peptide: SVEGEGEEEGEEY
modifications: also: NHS-fluorescein label, position not given here

Test [1] deals with Taxol-stabilized microtubules from lyophilized tubulin (Cytoskeleton, Inc.) (UniProt P02550 1-451; P02554 1-445). The experiment in a line: ITC.
Test [2] addresses B1. The experiment in a line: fluorescence polarisation. On the technique in general: Polarisation of emitted light reports the rotation of a fluorescent probe.

Taxol-stabilized microtubules from lyophilized tubulin (Cytoskeleton, Inc.), sequence (P02550 whole entry, chain 1 of 2): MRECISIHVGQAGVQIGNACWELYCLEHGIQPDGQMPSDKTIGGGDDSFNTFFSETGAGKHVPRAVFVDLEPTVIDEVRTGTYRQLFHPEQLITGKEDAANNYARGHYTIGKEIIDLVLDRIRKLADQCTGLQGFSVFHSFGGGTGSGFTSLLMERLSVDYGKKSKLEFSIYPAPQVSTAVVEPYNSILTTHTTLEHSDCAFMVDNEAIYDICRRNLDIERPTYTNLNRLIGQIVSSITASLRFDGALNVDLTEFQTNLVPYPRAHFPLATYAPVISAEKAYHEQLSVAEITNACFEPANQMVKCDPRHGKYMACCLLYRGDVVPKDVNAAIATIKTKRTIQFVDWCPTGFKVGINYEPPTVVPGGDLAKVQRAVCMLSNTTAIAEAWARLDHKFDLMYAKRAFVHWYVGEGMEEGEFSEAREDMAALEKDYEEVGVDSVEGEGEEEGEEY
Taxol-stabilized microtubules from lyophilized tubulin (Cytoskeleton, Inc.), sequence (P02554 whole entry, chain 2 of 2): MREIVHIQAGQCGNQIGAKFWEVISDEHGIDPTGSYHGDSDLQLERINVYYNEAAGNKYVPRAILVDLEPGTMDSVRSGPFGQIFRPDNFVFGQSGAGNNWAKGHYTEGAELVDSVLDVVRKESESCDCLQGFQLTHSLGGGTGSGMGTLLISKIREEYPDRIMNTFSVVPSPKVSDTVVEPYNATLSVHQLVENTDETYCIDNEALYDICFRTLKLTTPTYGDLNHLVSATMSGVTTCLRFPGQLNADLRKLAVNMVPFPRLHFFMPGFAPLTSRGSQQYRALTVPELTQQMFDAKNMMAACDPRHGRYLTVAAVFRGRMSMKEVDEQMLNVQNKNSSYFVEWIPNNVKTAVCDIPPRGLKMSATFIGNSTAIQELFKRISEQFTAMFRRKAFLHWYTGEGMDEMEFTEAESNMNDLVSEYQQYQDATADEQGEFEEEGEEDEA

As to B1, in test [1], the equilibrium dissociation constant (Kd) was found to be 0.94 µM and the “stoichiometry N” value is 0.51 ± 0.09 MAP7 MTBD to tubulin.

Consider B2, for which the equilibrium dissociation constant (Kd) in test [2] worked out at 91.3 ± 17.5 µM.
